Experimental findings from patent publication US20240270826A1 (NATIONAL RESEARCH COUNCIL OF CANADA, published 2024) are described below.

B1: NRCoV2-SR16 VHH (VHH)
VHH: QVQLVQSAGGLVQAGGSLRLSCVVSGTTFSRYHMGWHRQAPGKQRDFVAGISTSGAVTYADSAKGRFTISRDNAKNTVYLEMNSLKLEDTALYYCNTGGWDYRSSTFIMGLNWGQGTQVTVSS
B2: NRCoV2-MRed04 VHH (VHH)
VHH: EVQLVESGGGLVQPGRSLRLSCAASGNSFSISTMGWFRQAPGKERELVASIWSDTTTSYADSVKGRFTISTDNTRTKVYLQMSSLNPEDTAVYYCAADRGFVVRGQYDYWGQGTQVTVSS
B3: NRCoV2-SR04 VHH (VHH)
VHH: QVQLVESGGGLVQAGGSLRLSCAASGRTFSSHTVGWYRQAPGKQRDLVAAISMGGNTNYADYADSVKGRFTISRDNAKNTLYLQMNSLKPEDTAVYYCNTAALVGNRLLPMATITWGQGTQVTVSS
B4: NRCoV2-11 VHH (VHH)
VHH: EVQLVSSGGGLVQPGGSLRLSCAASGSSLDSYSVSWFRQAPGKEREWISFISRYYSSTYYTDSVKGRFTTSRDGDQKTVHLQMNSLKPEDTAVYYCAARSRDFSSPFSATDTYTSWGQGTQVTVSS
B5: NRCoV2-02 VHH (VHH)
VHH: EVQLVESGGGLVQAGGSLRLSCAASGFTFSNYAMNWVRQAPGKGLEWVSGISGRGDDTRYADSVKGRFTISRDNAKNTLFLQMRSLRPEDTGVYRCTKGPDLYYFGSGYSDRGQGTQVTVSS
B6: NRCoV2-03 VHH (VHH)
VHH: EVQLVSSGGGLVQAGGSLRLSCTASGITFSYYAMGWYRQAPGQPRELVASMSNMDSTIYADSVKGRFTISRDNAKTTIYLQMNNLKPEDTAVYFCNIYGPTYSTRRNEYWGQGTQVTVSS
B7: NRCoV2-MRed06 VHH (VHH)
VHH: EVQLVESGGGLVQAGGSLRLSCAASGFTLAYYAIGWFRQAPGKEREGVSCISSSDGSAHYADSVKGRFTISRDNAKNTVSLQMNSLKPEDTAVYYCATDSFSSCSDYESGMDFWGKGTQVTVSS
B8: NRCoV2-04 VHH (VHH)
VHH: AVQLVDSGGGLVQPGGSLRLSCAASGSPFSNVVMAWYRQAPGKQRERVAFISGGGIADYIMSVKGRFTISRDNAKNTVYLQMNSLKPEDTAVYYCWSSYESTWGQGTQVTVSS
B9: NRCoV2-14 VHH (VHH)
VHH: EVQLVSSGGGLVQAGGSLRLSCEASGTTFSHYAVGWYRQAPGKQREWVASISVFGSTTYGGSVAGRFTISRDNDKNTVDLQMNSLKPEDTAVYYCHAVNADIGGDYWGQGTQVTVSS
B10: NRCoV2-15 VHH (VHH)
VHH: EVQLVSSGGGLVEAGGSLRLSCIASGSTSGRNTMGWFRQAPGKQREWVAIVSTSGATNYAGSVKGRFTLSRDNAKNAVYLQMNNLKPEDTAVYYCYAAYGGGGDYWGQGTQVTVSS
B11: NRCoV2-07 VHH (VHH)
VHH: QVQLVQSGGGLVQPGGSLRLSCAASGVTLDYYAIGWFRQAPGKEREAVSCISSNGRRNHYVASVRGRFTISRDNAKSTVYLQMNSLKPEDTAVYYCAAVQDVHGDNYYCTSPNEYNVWGQGTQVTVSS
B12: NRCoV2-10 VHH (VHH)
VHH: QLQLQESGGGLVQPGGSLTLSCAASGNTFSRSNMHWYRQAPGAQREWVAAISSRGISTYAYSAKGRFTISRDNAKNTVSLQMNSLKPEDTAVYYCYAADDLGDYWGQGTQVTVSS
B13: NRCoV2-SR03 VHH (VHH)
VHH: AVQLVDSGGGLVQAGGSLRLSCAASGSIFSNNHMGWYRQAPGKQRELVAAISSGGKTNYADFAKGRFTISRDNAKNMVYLQMNSLKPEDTAVYYCNRGGWEYRSSYYIMGPHWGQGTQVTVSS
B14: NRCoV2-06 VHH (VHH)
VHH: EVQLVQSGGGLVQAGESLRLSCAASVSTFSSYAMGWYRQAPGKQRELVASIGFVGATYYIDSVKGRFTISRDNAKKTAYLQMNDLKPDDTAVYYCNARHYGGSEYWGQGTQVTVSS
B15: NRCoV2-17 VHH (VHH)
VHH: EVQLQQSGGGLVQTGGSLRLSCAAAGSPFSQLAMSWYRQISGKERAWVASISPTGNRSYSKIAKGRFTISRDNAKNTVTLQMTSLKPEDTAAYICQAANVNGGDYWGQGTQVTVSS
B16: NRCoV2-05 VHH (VHH)
VHH: EVKLVQSGGGLVQPGGSLRLSCAASGFIFSNYAMNWVRQAPGKGLEWVSGINSGGGDTRYADSVKGRFTVSRDNAKNTLYLQMNSLKPEDTGVYYCSKGPVSSYYGSGYDYRGQGTQVTVSS
B17: NRCoV2-MRed03 VHH (VHH)
VHH: EVQLVESGGGLVQPGGSLRLSCAAIGFTLDYYAIGWFRQAPGKEREGVSCISSSDGSTYYADSVKGRFTISRDNAKNTVYLQMNSLKPEDTAVYYCATDAFATCDSWYAQIAQYDFRGQGTQVTVSS
B18: NRCoV2-SR01 VHH (VHH)
VHH: EVQLVQSGGGSVQAGGSLRLSCVASGFTFDNYAIGWFRQAPGKEREGVSCISGNGGVTIYADSVKGRFTISRDNAKNLVYLQMNSLKPEDTAVYYCAATGIRSTWSVYGCSRLAGPYDYWGQGTQVTVSS
B19: NRCoV2-MRed07 VHH (VHH)
VHH: EVQLVESGGGLVQPGGSLTLSCAASGSIGPFNTMGWYRQAPGNQREPAAIITRGGVTNYADSVKGRFTISRDNAKNAVYLQMDSLKPDDTAVYYCYANYGWAIPYWGNGTQVTVSS
B20: NRCoV2-SR13 VHH (VHH)
VHH: EVQLVESGGGLVTTGGSLRLSCATSGSRFGSKHMAWYRQAPGKQRDLVAAISSGGSTHYGSSVKGRFTISRDNAKSTVYLQMNSLNPEDTAVFYCNMGGWDYRSNTYIPGSRSDYWGQGTQVTVSS

In the first assay the target is SARS-CoV spike (S) (SARS-CoV, UniProt P59594 14-1195). The experiment in a line: SPR, VHH over immobilised S. In general terms: SPR reads the build-up and loss of mass on a sensor chip optically.
Turning to B1, the binding result is “no binding”.
In the case of B2, the Kd (commonly the equilibrium constant for the complex coming apart) is 300 nM; the koff (in general, the rate constant with which the complex falls apart) was 0.097 s⁻¹; the kon (commonly a measure of how fast the partners come together) amounted to 323000 M⁻¹ s⁻¹.
Turning to B3, the binding result was “no binding”.
On to B4, for which the Kd amounted to 0.014 nM, the koff is 2.7e-05 s⁻¹ and the association rate constant (kon) amounted to 1.93e+06 M⁻¹ s⁻¹.
B5: the binding result was “no binding”.
Same read-out and setting: the result for B6 reads “no binding”; that for B7, “no binding”; that for B8, “no binding”.
B9: the binding result is on record as “no binding”.
In the case of B10, the binding result is on record as “no binding”.
B11 registered a Kd of 12.2 nM, a koff of 0.00146 s⁻¹ and an association rate constant (kon) of 120000 M⁻¹ s⁻¹.
B12: the binding result was “no binding”.
On the same count and under the same terms, the result for B13 reads “no binding”; that for B14, “no binding”; that for B15, “no binding”.
On the same count and under the same terms, the result for B16 reads “no binding”; that for B17, “no binding”.
B18 yielded a Kd of 0.154 nM, a koff of 0.000105 s⁻¹ and a kon of 681000 M⁻¹ s⁻¹.
With B19, the binding result was “no binding”.

The next assay concerns the target T1, Human SARS-CoV-2_Wuhan S (SmT1) (SARS-CoV-2 (Wuhan), UniProt P0DTC2 14-1208). The experiment in a line: SPR, VHH over immobilised S.
For the molecule B1, the Kd stood at 1.96 nM, the koff is 0.000957 s⁻¹ and the kon is 488000 M⁻¹ s⁻¹.
The molecule B2 showed a Kd of 0.863 nM, a koff of 0.00131 s⁻¹ and a kon of 1.51e+06 M⁻¹ s⁻¹.
B20 yielded a Kd of 3.56 nM, a dissociation rate constant (koff) of 0.00376 s⁻¹ and a kon of 1.06e+06 M⁻¹ s⁻¹.
Regarding B3, the Kd was found to be 0.14 nM, the koff was found to be 0.000515 s⁻¹ and the kon worked out at 3.68e+06 M⁻¹ s⁻¹.
The corresponding values for B4 are 0.0177 nM, 1.71e-05 s⁻¹ and 964000 M⁻¹ s⁻¹.
The corresponding values for B5 are 0.624 nM, 0.00127 s⁻¹ and 2.04e+06 M⁻¹ s⁻¹.
The matching figures for B6: 1.56 nM, 0.000181 s⁻¹ and 116000 M⁻¹ s⁻¹.
B7 registered a Kd of 5.19 nM, a koff of 0.000996 s⁻¹ and a kon of 192000 M⁻¹ s⁻¹.
The matching figures for B8: 10.2 nM, 0.0188 s⁻¹ and 1.84e+06 M⁻¹ s⁻¹.
Molecule B9 had a Kd of 2.6 nM, a koff of 0.00101 s⁻¹ and a kon of 389000 M⁻¹ s⁻¹.
The corresponding values for B10 are 0.321 nM, 0.000222 s⁻¹ and 691000 M⁻¹ s⁻¹.
The matching figures for B11: 0.939 nM, 0.000355 s⁻¹ and 378000 M⁻¹ s⁻¹.
The matching figures for B12: 0.199 nM, 0.000116 s⁻¹ and 581000 M⁻¹ s⁻¹.
In turn, B13 came in with a dissociation constant (Kd) of 1.69 nM, a koff of 0.00113 s⁻¹ and a kon of 670000 M⁻¹ s⁻¹.
The corresponding values for B14 are 223 nM, 0.00456 s⁻¹ and 20500 M⁻¹ s⁻¹.
The corresponding values for B15 are 0.154 nM, 9.45e-05 s⁻¹ and 614000 M⁻¹ s⁻¹.
The corresponding values for B16 are 2.57 nM, 0.00709 s⁻¹ and 2.76e+06 M⁻¹ s⁻¹.
Take B17: the Kd was determined as 0.508 nM, the off-rate constant (koff) worked out at 0.000121 s⁻¹ and the kon was 237000 M⁻¹ s⁻¹.
The matching figures for B18: 0.564 nM, 0.000805 s⁻¹ and 1.43e+06 M⁻¹ s⁻¹.
The matching figures for B19: 0.105 nM, 0.000481 s⁻¹ and 4.58e+06 M⁻¹ s⁻¹.

A further assay concerns the target T1, Human SARS-CoV-2_Wuhan S (SmT1). The experiment in a line: SPR, VHH over immobilised S. This is another data set of the same source.
B1: binding was put at a Kd of 2 nM. In other words, the single-digit nanomolar range.
Same read-out and setting: the same measure for B2: 0.86 nM; for B20: 3.6 nM.
Still for that read-out and setting: the same measure for B3: 0.14 nM; for B4: 0.018 nM.
Same read-out and setting: the result for B5 reads 0.62 nM.
The molecule B6 returned a dissociation constant Kd of 1.56 nM.
The same measure, in the same setting: the same measure for B7: 5.2 nM; for B8: 10.2 nM; for B9: 2.6 nM.
Same read-out and setting: the same measure for B10: 0.32 nM.
On the same count and under the same terms, the same measure for B11: 0.94 nM; for B12: 0.2 nM; for B13: 1.69 nM.
The molecule B14 yielded a Kd of 223 nM.
The same measure, in the same setting: the same measure for B15: 0.15 nM; for B16: 2.6 nM.
Still for that read-out and setting: the same measure for B17: 0.51 nM.
Still for that read-out and setting: the result for B18 reads 0.56 nM.
B19: the equilibrium dissociation constant (Kd) stood at 0.11 nM.
